From US20100278838A1, “EPHA2 MONOCLONAL ANTIBODIES AND METHODS OF USE THEREOF” (MEDIMMUNE, LLC, priority 2002, published 2010)
“Also recorded” adds a separate entry of the source.

What was measured:
[1] = tested on: MDA-MB-231 breast cancer cells implanted orthotopically; experiment: Tumor growth in vivo, MDA-MB-231 implanted orthotopically; set-up: species or system athymic mice; conditions: 6mg/kg intraperitoneally twice a week for 3 weeks; versus PBS or 1A7
Method: FIGS. 7A-7D: The EphA2 antibodies, EA2, Eph099B-208.261, and Eph099B-233.152, inhibit tumor cell growth in vivo. MDA-MB-231 breast cancer cells were implanted (A) orthotopically or (B) subcutaneously into athymic mice. (C) A549 lung cancer cells were implanted subcutaneously into athymic mice. After the tumors had grown to an average volume of 100 mm^3, mice were administered 6 mg/kg of the indicated antibody or negative control (PBS or 1A7 antibody) intraperitoneally twice a week for 3 weeks. Tumor growth was assessed and expressed as a ratio of the tumor volume divided by initial tumor volume (100 mm^3). (D) MDA-MB-231 breast cancer cells were implanted subcutaneously into athymic mice. After the tumors had grown to an average volume of 100 mm^3, mice were administered 6 mg/kg of the indicated antibody or negative control intraperitoneally twice a week for 3 weeks. Total tumor volume was determined after sacrifice. Negative control is black, EA2 is white, Eph099B-208.261 is dark grey, and Eph099B-233.152 is light grey.
5×10^6MDA-MB-231 breast cancer cells were implanted orthotopically or subcutaneously and 5×10^6 A549 lung cancer cells were implanted subcutaneously into athymic mice. […] Tumor growth was assessed and expressed either as a ratio of the tumor volume divided by initial tumor volume (100 mm^3) or as total tumor volume. […]

control MCF-7 cells = experiment: Soft agar colonization of control MCF-7 cells; type: cell-based; conditions: EA2 10 μg/ml, tamoxifen 1 μM
Method: FIGS. 11A-11B: EphA2 overexpression decreases tamoxifen sensitivity. (A) 1×10^5 MCF-7 or MCF-7^EphA2 cells were suspended in soft agar in the presence of 1 μM tamoxifen (TAM) and or 1 μM 17β-estradiol and colony formation was evaluated microscopically after 14 days. (B) MCF-7 (circles) or MCF-7^EphA2 cells (squares) were implanted into the mammary fatpad (n=15 mice per group) in the presence of supplemental estrogen. Tamoxifen treatment was initiated 17 days post-implantation. Tumor volume of tamoxifen treated (black circles and squares) and saline treated (white circles and squares) animals was measured at the indicated time.
FIGS. 13A-13C: EphA2 agonistic antibody EA2 decreases malignant growth. MCF-7^EPhA2 cells were incubated in the presence of 3 μg/ml of EA2 for the time indicated prior to sample extraction and western blot analyses with an EphA2-specific antibody (D7). […]
EphA2 overexpression increased malignant growth (FIGS. 8A-8B). […] Colony formation in soft agar was performed as previously described (Zelinski et al., 2001, Cancer Res. 61:2301-6) and scored microscopically, defining clusters of at least three cells as a positive. […] Error bars represent the standard error of the mean of at least three different experiments as determined using Microsoft Excel software.
Sensitivity of MCF-7^EphA2 cells to tamoxifen was measured. […]

[2] = tested on: EphA2 on non-transformed MCF-10A cells; experiment: Immunofluorescence binding to non-transformed cells with or without EGTA; type: cell-based; conditions: 4mM EGTA for 20 min
Method: (§1) (A, B) Non-transformed MCF-10A cells were labeled with EA2 at 4° C. either before (A) or after (B) treatment with EGTA and prior to fixation and immunolabeling with fluorophore-conjugated anti-mouse IgG. (C, D) Non-transformed MCF-10A (C) or transformed MDA-MB-231 (D) cells were labeled with EA2 either before (middle) or after (top) treatment with EGTA. Control cells were incubated with secondary antibody alone (bottom). The amount of EA2-EphA2 binding was measured using flow cytometry.
The epitopes of EphA2 antibodies were characterized. Non-transformed MCF-10A cells or transformed MDA-MB-231 cells were incubated with 10 μg/ml Eph099B-233.152 or EA2 at 4° C. for 30 min. prior to fixation in a 3% formalin solution and immunolabeling with fluorophore-conjugated anti-mouse IgG. […] Treatment of non-transformed MCF-10A cells with 4mM EGTA for 20 min. dissociated the cells.

[3] = tested on: EphA2 on non-transformed MCF-10A cells; experiment: Flow cytometry of EA2 binding, non-transformed cells with or without EGTA; type: cell-based; conditions: 10 μg/ml EA2; 4 mM EGTA 10-15 minutes on ice
Method: as §1
An equivalent experiment was performed using MCF-10A or MDA-MB-231 cells. The amount of EA2 binding to EphA2 was measured using flow cytometry (FIGS. 17C-17D). Cells were either treated by incubation in 4 mM EGTA for 10-15 minutes on ice (top panel) or were not treated with EGTA (middle panel) before incubation with 10 μg/ml EA2. Cells were then fixed with 3% formalin and labeled with fluorophore-labeled donkey anti-mouse IgG. Control cells were incubated only with secondary antibody (fluorophore-labeled donkey anti-mouse IgG) in the absence of primary antibody (EA2) (bottom panel). The samples were then evaluated using flow cytometry (Becton Dickinson FACStar Plus).

B1: EA2: EphA2 agonistic monoclonal antibody; ATCC deposit no. PTA-4380; co-pending application Ser. No. 10/436,783; VL SEQ ID NO:33, VH SEQ ID NO:37 (antibody, listed as Homo Sapiens, V domains shown)
VH: DVKLVESGGGLVKPGGSLKLSCAASGFTFSSYTMSWVRQTPEKRLEWVATISSGGTYTYYPDSVKGRFTISRDNAKNTLYLQMSSLKSEDTAMYYCTREAIFTYWGQGTLVTVSA
VL: DIKMTQSPSSMYASLGERVTITCKASQDINNYLSWFQQKPGKSPKTLIYRANRLVDGVPSRFSGSGSGQDYSLTISSLEYEDMGIYYCLKYDEFPYTFGGGTKLEIK
Growth of MDA-MB-231 cells implanted orthotopically [1]: inhibited
Effect of EA2 on tamoxifen response of control MCF-7 cells in soft agar (control MCF-7 cells): did not further alter this response
Binding to EphA2 on MCF-10A cells with or without EGTA dissociation [2]: bound EphA2 on the EGTA dissociated cells but not the untreated cells; also recorded: preferentially binds EphA2 epitopes exposed by decreasing cell-cell contacts
Effect of EGTA treatment on EA2 binding, non-transformed cells [3]: increased by incubation in EGTA
